Experimental data reported in patent publication US20250188194A1, “Method of treatment” (Nucleus Therapeutics Pty Ltd, priority 2021, published 2025).
Several values for one entry are separate records, joined by “and”; a condition that tells them apart may be missing. Equal values may be shown once.

Legend:
mouse neutrophils = test: Mouse neutrophils NETosis visualization (MPO, H3Cit, PAD4 immunostaining); format: cell-based; conditions: 10 μM DX1 30 minutes, N=4
Description: (§1) Neutrophils obtained from thioglycollate-treated mice and directly plated onto 20-well plates were treated with control media or media containing 10 μM DX1 for 30 minutes, and then observed for four hours, after which cells were fixed and immunostained for markers of NETs including myeloperoxidase (MPO), H3Cit, and peptidylarginine deiminase 4 (PAD4). The percentage of NETs released per 100 cells was determined by visualization on confocal microscopy and analyzed by ImageJ (NIH).
as §1, with “stimulated with PMA for induction of NOX-dependent NETosis” for “observed”, “MPO,” for “myeloperoxidase (MPO),”, “PAD4.” for “peptidylarginine deiminase 4 (PAD4).”, “confocal fluorescence” for “confocal”, “(NIH). […]” for “(NIH).”
as §1, with “stimulated with a calcium ionophore (ionomycin, IM) for induction of NOX-independent NETosis” for “observed”, “MPO,” for “myeloperoxidase (MPO),”, “PAD4.” for “peptidylarginine deiminase 4 (PAD4).”, “confocal fluorescence” for “confocal”
All mouse work was conducted under a protocol approved by Monash University's Animal Ethics Committee. […] Cells were fixed in periodate-lysine-paraformaldehyde (PLP) overnight, immunostained for markers of NETs including myeloperoxidase (MPO, #AF3667 R&D Systems, MN, USA), H3Cit, and PAD4 (#AB128086, abcam), mounted in DAPI ProLong™ Gold (Molecular Probes, Thermo Fisher Scientific) and NETs were visualized by confocal fluorescence microscopy with a Nikon Ti-E inverted microscope (Nikon Instruments Inc, Melville, NY, USA). […]

[1] = system: differentiated PLB-985 cells; test: Visualization of chromatin decondensation by DAPI stain after PMA stimulation; format: cell-based, human; conditions: one hour pre-treatment with 10 μM DX1, 300 nM PMA two hours; control cells 67.5%; N=2
Description: FIGS. 2A-2D. DAPI and SYTOX™ Green stains support the conclusion that DX1inhibits chromatin decondensation and DNA release by differentiated PLB-985 cells stimulated with PMA. (2A) Chromatin decondensation in differentiated PLB-985 cells after stimulation with PMA±a one hour pre-treatment with 10 μM DX1 was visualized by DAPI stain. Left panel: Control cells with decondensed DAPI stain after PMA stimulation. Right panel: DX1-treated cells retaining condensed DAPI signal after PMA stimulation. Bar: 25 μm. (2B) Quantification of the percentage of differentiated PLB-985 cells with decondensed DAPI stain after PMA stimulation. […] (2C) DNA release by differentiated PLB-985 cells after stimulation with PMA±a one hour pre-treatment with 10 μM DX1 was visualized by addition of the impermeant DNA stain SYTOX™ Green. Representative images are shown. Bar: 25 μm. (2D) SYTOX™ Green signal in wells containing differentiated PLB-985 cells stimulated with PMA±a one hour pre-treatment with 10 […] was quantified by plate reader. […]
Differentiated PLB-985 cells were plated on Shi-fix coverslips in 12-well plates at 5×10^4 cells/well. […] Cells were fixed with ethanol followed by addition of DAPI and visualization of chromatin decondensation by fluorescence microscopy (EVOS FL, Thermo Fisher Scientific).

B1: DX1: 3E10 derivative, a di-scFv having the sequence SEQ ID NO: 38; nuclear-penetrating anti-DNA binding protein (protein)
scFv: DIQMTQSPSSLSASLGDRATITCRASKTVSTSSYSYMHWYQQKPGQPPKLLIKYASYLESGVPSRFSGSGSGTDFTLTISSLQPEDAATYYCQHSREFPWTFGGGTKVEIKTVDAAPGGGGSGGGGSGGGGSEVQLVESGGGLVQPGGSLRLSCAASGFTFSNYGMHWVRQAPGKGLEWVSYISSGSSTIYYADSVKGRFTISRDNAKNSLYLQMNSLRAEDTAVYYCARRGLLLDYWGQGTTVTVSSASTKGPSVFPLAPLESTGSDIQMTQSPSSLSASLGDRATITCRASKTVSTSSYSYMHWYQQKPGQPPKLLIKYASYLESGVPSRFSGSGSGTDFTLTISSLQPEDAATYYCQHSREFPWTFGGGTKVEIKTVDAAPGGGGSGGGGSGGGGSEVQLVESGGGLVQPGGSLRLSCAASGFTFSNYGMHWVRQAPGKGLEWVSYISSGSSTIYYADSVKGRFTISRDNAKNSLYLQMNSLRAEDTAVYYCARRGLLLDYWGQGTTVTVSS
modifications: DX1 sequence
percentage of NETs, unstimulated neutrophils (mouse neutrophils; no stimulus, four hours, control 3.5%±1.0): 4.0%±1.5 | percentage of NETs, ionomycin (IM) stimulation (NOX-independent NETosis) (mouse neutrophils; then IM 4 μM four hours, control 15.5%±3.1): 2.3%±0.8 | percentage of NETs, PMA stimulation (NOX-dependent NETosis) (mouse neutrophils; then PMA four hours, control 36.3%±11.1): 8.3%±2.7 | percentage of cells with decondensed DAPI stain after PMA stimulation [1]: 37.8±2.7% and 37.8±3.8%
